Assay results: patent publication US20140141093A1 (DOMANTIS, published 2014)

T1: TNFR1-FC fusion (human, UniProt P19438 30-211, limits assumed)
T1 construct: not shown: Fc part (captured by goat anti-human IgG)
T1 sequence (looked up): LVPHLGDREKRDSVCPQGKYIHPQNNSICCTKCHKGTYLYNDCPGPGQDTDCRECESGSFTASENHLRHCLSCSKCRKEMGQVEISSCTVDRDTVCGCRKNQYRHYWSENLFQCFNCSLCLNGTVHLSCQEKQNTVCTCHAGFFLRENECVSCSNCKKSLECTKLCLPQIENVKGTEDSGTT

B1: DOM1h-131-206 (other)
VH: EVQLLESGGGLVQPGGSLRLSCAASGFTFAHETMVWVRQAPGKGLEWVSHIPPDGQDPFYADSVKGRFTISRDNSKNTLYLQMNSLRAEDTAVYHCALLPKRGPWFDYWGQGTLVTVSS
notes: Human VH dAb against TNFR1; also called GSK1995057A
B2: DOM15-10 Fc fusion (Fc fusion)
chain: DIQMTQSPSSLSASVGDRVTITCRASQWIGPELSWYQQKPGKAPKLLIYHTSILQSGVPSRFSGSGSGTDFTLTISSLQPEDFATYYCQQYMFQPRTFGQGTKVEIRR
notes: also called DMS1546; not shown: short peptide linker and human IgG1 Fc

Key:
TNFR1-FC fusion = biological target: T1, TNFR1-FC fusion; assay: human TNFR1 receptor binding assay: inhibition of TNF-alpha (10 ng/ml) binding to bead-captured TNFR1-Fc, four replicates
human VEGF = biological target: T2, human VEGF (human, UniProt P15692-4 27-191, biotinylated in selections and on the SA sensorchip); assay: RBA assay (footnote †); value read as that of the Fc fusion
T2 construct: also called hVEGF; VEGFA
T2 sequence (P15692 other isoform, or with tags, fused parts or gaps limits assumed): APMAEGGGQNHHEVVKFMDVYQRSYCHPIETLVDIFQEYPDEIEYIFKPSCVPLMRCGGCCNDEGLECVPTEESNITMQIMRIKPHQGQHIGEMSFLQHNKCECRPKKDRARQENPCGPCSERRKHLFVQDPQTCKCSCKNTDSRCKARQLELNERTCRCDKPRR

Binder | IC50 (read off the curve) (TNFR1-FC fusion) | Activity (nM), RBA assay (human VEGF)
B1 | ~0.08 nM | –
B2 | – | 0.913 nM
